# From publication PMC7304575, “Cryo-EM structure of the nonameric CsgG-CsgF complex and its implications for controlling curli biogenesis in Enterobacteriaceae” (PLoS Biology, 2020)
# B1: CsgG with a C-terminal 6×His tag (natural protein, E. coli, UniProt P0AEA2 16-277, looked up)
# chain: CLTAPPKEAARPTLMPRAQSYKDLTHLPAPTGKIFVSVYNIQDETGQFKPYPASNFSTAVPQSATAMLVTALKDSRWFIPLERQGLQNLLNERKIIRAAQENGTVAINNRIPLQSLTAANIMVEGSIIGYESNVKSGGVGARYFGIGADTQYQLDQIAVNLRVVNVSTGEILSSVNTSKTILSYEVQAGVFRFIDYQRLLEGEVGYTSNEPVMLCLMSAIETGVIFLINDGIDRGLWDLQNKAERQNDILVKYRHMSVPPES
# notes: CsgG, E. coli K12 MG1655; the full-length csgG gene was expressed and the protein purified from outer membranes; the structure holds residues 16-272 with the C-terminal 5 residues invisible (so 16-277); numbers count on the full-length precursor; also called CsgGHis; C-terminally His-tagged CsgG; not shown: His6, C-terminal, kept
# Experiments:
# [1] = biological target: the molecule itself; test: cryo-EM structure; full-length CsgG-CsgF complex, co-expressed and co-purified in DDM; map at 3.6 Å
# [2] = biological target: the molecule itself; test: cryo-EM structure; chymotrypsin-digested CsgG-CsgF_(20–59) complex in 20 mM Tris-HCl pH 8.0, 150 mM NaCl, 0.06% DDM; filaments on the grid; maps at 2.9 Å (head-to-head, D9) and 3.2 Å (head-to-tail, C9)
# [3] = biological target: B1; test: pull-down; GST fusions or GST (approximately 0.1 mg) immobilised on glutathione sepharose, approximately 0.2 mg CsgG added, 1 hour at 4°C; washed with 20 mM Tris-HCl pH 7.5, 150 mM NaCl, 5% glycerol, 0.1% DDM; SDS-PAGE and anti-His western blot; details: both partners purified
binder,measurement,setting,value
B1,stoichiometry N,[1],9
"chymotrypsin-digested CsgG (residues 47–252) of the CsgG-CsgF_(20–59) complex (domain or fragment, E. coli, UniProt P0AEA2 47-252, looked up, numbers count on the full-length precursor; The His tag goes with the C-terminal residues that chymotrypsin removed; source: E. coli BL21 (DE3), co-expressed with CsgF, purified (Ni-NTA), chymotrypsin proteolysis, size exclusion chromatography; not shown: His6, C-terminal, cleaved) GKIFVSVYNIQDETGQFKPYPASNFSTAVPQSATAMLVTALKDSRWFIPLERQGLQNLLNERKIIRAAQENGTVAINNRIPLQSLTAANIMVEGSIIGYESNVKSGGVGARYFGIGADTQYQLDQIAVNLRVVNVSTGEILSSVNTSKTILSYEVQAGVFRFIDYQRLLEGEVGYTSNEPVMLCLMSAIETGVIFLINDGIDRGLW",stoichiometry N,[2],9
"GTMTFQFRNPNFGGNPNNGAFLLNSAQAQNSYKD (domain or fragment, E. coli, UniProt P0AE98 20-53, looked up, CsgF, E. coli, residues 20-53 (N-terminus of the mature CsgF); numbers count on the full-length precursor; also called CsgF_(20–53) fused to GST C-terminally; source: E. coli BL21 (DE3), purified; not shown: GST, C-terminal, kept) [CsgF_(20–53)-GST]",binding result,[3],binds
